Results on two molecules are retold here after patent publication US20230002478A1 (published 2023).

In one assay the target is SARS-CoV-2 S1 (SARS-CoV-2, UniProt P0DTC2 16-685). Nature of the assay: SPR.
The target in the next assay is SARS-CoV-2 S Trimer (SARS-CoV-2, UniProt P0DTC2 16-1213). Nature of the assay: SPR. On the technique in general: Surface plasmon resonance follows binding to a sensor surface in real time, without labels.

B1: antibody 202-03 (Fc fusion)
chain: EVQLVESGGGLVQPGGSLRLSCAASGFTFSPSWMGWFRQAPGKEREFVATINEYGGRNYADSVKGRFTISADNSKNTAYLQMNSLKPEDTAVYYCARVDRDFDYWGQGTLVTVSS
Regarding B1, the Kd – broadly, the free concentration of one partner at which half of the binding sites on the other are occupied at equilibrium, for simple one-to-one binding – worked out at 0.011 nM with SARS-CoV-2 S1 and 0.299 nM with SARS-CoV-2 S Trimer.

B2: antibody 339-031 (Fc fusion)
chain: EVQLVESGGGLVQPGGSLRLSCAASGSTFSINAMGWFRQAPGKEREFVAGITSSGGYTNYADSVKGRFTISADNSKNTAYLQMNSLKPEDTAVYYCAADGVPEYSDYASGPVWGQGTLVTVSS
Consider B2, for which the Kd in the assay with SARS-CoV-2 S1 was 0.006 nM; in the assay with SARS-CoV-2 S Trimer it was less than 0.014 nM.
